The text below walks through data of patent publication US20070078092A1 (CUREGENICS, published 2007).

Square brackets hold non-standard residues; d marks the D form. Ends that are not written are not given here. * marks the point of attachment. Cholesteryloxycarbonyl = CC(C)CCC[C@@H](C)[C@H]1CC[C@H]2[C@@H]3CC=C4C[C@@H](OC(=O)*)CC[C@]4(C)[C@H]3CC[C@]12C; Lithocholoyl = C[C@H](CCC(=O)*)[C@H]1CC[C@H]2[C@@H]3CC[C@@H]4C[C@H](O)CC[C@]4(C)[C@H]3CC[C@]12C; FITC = O=C1OC2(c3ccc(O)cc3Oc3cc(O)ccc32)c2ccc(NC(=S)*)cc21; Biotin = O=C1N[C@H]2[C@H](CS[C@H]2CCCCC(=O)*)N1; hLeu = CC(C)CC[C@H](N)C(=O)O; VitB6 = vitamin B6 moiety; Orn = NCCC[C@H](N)C(=O)O; Nva = CCC[C@H](N)C(=O)O; Dap = NC[C@H](N)C(=O)O

The labels stand for the following.
B1: PTR 6194 (peptide)
peptide: Lithocholoyl-RPR[Nva]YA[hLeu]-NH2
SMILES: CCC[C@H](NC(=O)[C@H](CCCNC(=N)N)NC(=O)[C@@H]1CCCN1C(=O)[C@H](CCCNC(=N)N)NC(=O)CC[C@@H](C)[C@H]1CC[C@H]2[C@@H]3CC[C@@H]4C[C@H](O)CC[C@]4(C)[C@H]3CC[C@]12C)C(=O)N[C@@H](Cc1ccc(O)cc1)C(=O)N[C@@H](C)C(=O)N[C@@H](CCC(C)C)C(N)=O
B2: PTR 6400 (peptide)
peptide: Cholesteryloxycarbonyl-[dK][dK][dK]KPR[Nva]Y[Dap][hLeu]-NH2
SMILES: CCC[C@H](NC(=O)[C@H](CCCNC(=N)N)NC(=O)[C@@H]1CCCN1C(=O)[C@H](CCCCN)NC(=O)[C@@H](CCCCN)NC(=O)[C@@H](CCCCN)NC(=O)[C@@H](CCCCN)NC(=O)O[C@H]1CC[C@@]2(C)C(=CC[C@H]3[C@@H]4CC[C@H]([C@H](C)CCCC(C)C)[C@@]4(C)CC[C@@H]32)C1)C(=O)N[C@@H](Cc1ccc(O)cc1)C(=O)N[C@@H](CN)C(=O)N[C@@H](CCC(C)C)C(N)=O
B3: PTR 6390 (peptide)
peptide: Cholesteryloxycarbonyl-RPR[Nva]Y[Dap]-OH
SMILES: CCC[C@H](NC(=O)[C@H](CCCNC(=N)N)NC(=O)[C@@H]1CCCN1C(=O)[C@H](CCCNC(=N)N)NC(=O)O[C@H]1CC[C@@]2(C)C(=CC[C@H]3[C@@H]4CC[C@H]([C@H](C)CCCC(C)C)[C@@]4(C)CC[C@@H]32)C1)C(=O)N[C@@H](Cc1ccc(O)cc1)C(=O)N[C@@H](CN)C(=O)O
B4: PTR 6402 (peptide)
peptide: Cholesteryloxycarbonyl-[dK][dK][dK]RPR[Nva]Y[Dap][hLeu]K(FITC)-NH2
SMILES: CCC[C@H](NC(=O)[C@H](CCCNC(=N)N)NC(=O)[C@@H]1CCCN1C(=O)[C@H](CCCNC(=N)N)NC(=O)[C@@H](CCCCN)NC(=O)[C@@H](CCCCN)NC(=O)[C@@H](CCCCN)NC(=O)O[C@H]1CC[C@@]2(C)C(=CC[C@H]3[C@@H]4CC[C@H]([C@H](C)CCCC(C)C)[C@@]4(C)CC[C@@H]32)C1)C(=O)N[C@@H](Cc1ccc(O)cc1)C(=O)N[C@@H](CN)C(=O)N[C@@H](CCC(C)C)C(=O)N[C@@H](CCCCNC(=S)Nc1ccc2c(c1)C(=O)OC21c2ccc(O)cc2Oc2cc(O)ccc21)C(N)=O
B5: PTR 6398 (peptide)
peptide: Cholesteryloxycarbonyl-[dK][dK][dK][Orn]PR[Nva]Y[Dap][hLeu]-NH2
SMILES: CCC[C@H](NC(=O)[C@H](CCCNC(=N)N)NC(=O)[C@@H]1CCCN1C(=O)[C@H](CCCN)NC(=O)[C@@H](CCCCN)NC(=O)[C@@H](CCCCN)NC(=O)[C@@H](CCCCN)NC(=O)O[C@H]1CC[C@@]2(C)C(=CC[C@H]3[C@@H]4CC[C@H]([C@H](C)CCCC(C)C)[C@@]4(C)CC[C@@H]32)C1)C(=O)N[C@@H](Cc1ccc(O)cc1)C(=O)N[C@@H](CN)C(=O)N[C@@H](CCC(C)C)C(N)=O

The target in one test is protein kinase B (PKB). The test is described as follows: cell-based or functional assay.
With VitB6-RPR[Nva]YA[hLeu]-NH2 [PTR 6228], the “IC50, kinase assay PKB” value turned out to be 2000 nM.

Turning to Lithocholoyl-GRPR[Nva]Y[Dap][hLeu]-NH2 [PTR 6218], the “IC50, kinase assay PKB” value was 800 nM.

On to Lithocholoyl-RPR[Nva]Y[Dap][hLeu]-NH2 [PTR 6220], for which the “IC50, kinase assay PKB” value was found to be 2000 nM.

As for {Testosterone‑yl‑O‑CO}-RPR[Nva]YA[hLeu]-NH2 [PTR 6226], the “IC50, kinase assay PKB” value came out at 3000 nM.

Consider {S‑carbofluorescin}-RPR[Nva]Y[Dap][hLeu]-NH2 [PTR 6182], for which the “IC50, kinase assay PKB” value is 3000 nM.

Turning to {H‑1‑adamantyl}-RPR[Nva]YA[hLeu]-NH2 [PTR 6200], the “IC50, kinase assay PKB” value amounted to 300 nM.

With Lauryl-RPR[Nva]Y[Dap][hLeu]-NH2 [PTR 6160], the “IC50, kinase assay PKB” value was found to be 8000 nM.

In the case of Lithocholoyl-GRPR[Nva]YA[hLeu]-NH2 [PTR 6192], the “IC50, kinase assay PKB” value is 2500 nM.

On to {Galactopyranosyl‑O‑CO}-RPR[Nva]Y[Dap][hLeu]-NH2 [PTR 6214], for which the “IC50, kinase assay PKB” value was found to be 10000 nM.

For {Galactopyranosyl‑O‑CO}-RPR[Nva]YA[hLeu]-NH2 [PTR 6224], the “IC50, kinase assay PKB” value stood at 5000 nM.

In the case of {VitE‑Succinate}-RPR[Nva]YA[hLeu]-NH2 [PTR 6242], the “IC50, kinase assay PKB” value came out at 1000 nM.

Consider B1, for which the “IC50, kinase assay PKB” value was determined as 2000 nM.

As to VitB6-RPR[Nva]Y[Dap][hLeu] [PTR 6232], the “IC50, kinase assay PKB” value was determined as 1000 nM.

With {Testosterone‑yl‑O‑CO}-RPR[Nva]Y[Dap][hLeu]-NH2 [PTR 6212], the “IC50, kinase assay PKB” value is 7000 nM.

Take Biotin-RPR[Nva]Y[Dap][hLeu]-NH2 [PTR 6158]: the “IC50, kinase assay PKB” value was 1000 nM.

Regarding RPR[Nva]YA[hLeu]-NH2 (not fully specified (N-terminus)) [PTR 6202], the “IC50, kinase assay PKB” value amounted to 300 nM.

Another test concerns the target protein kinase A (PKA). The test is described as follows: cell-based or functional assay.
Turning to {S‑carbofluorescin}-RPR[Nva]Y[Dap][hLeu]-NH2 [PTR 6182], the “IC50, kinase assay PKA” value was above 10000 nM.

On to {H‑1‑adamantyl}-RPR[Nva]YA[hLeu]-NH2 [PTR 6200], for which the “IC50, kinase assay PKA” value was above 10000 nM.

Turning to Lauryl-RPR[Nva]Y[Dap][hLeu]-NH2 [PTR 6160], the “IC50, kinase assay PKA” value was 50000 nM.

As for Lithocholoyl-GRPR[Nva]YA[hLeu]-NH2 [PTR 6192], the “IC50, kinase assay PKA” value was above 10000 nM.

For {Galactopyranosyl‑O‑CO}-RPR[Nva]YA[hLeu]-NH2 [PTR 6224], the “IC50, kinase assay PKA” value turned out to be 8000 nM.

For the molecule B1, the “IC50, kinase assay PKA” value was above 10000 nM.

With Biotin-RPR[Nva]Y[Dap][hLeu]-NH2 [PTR 6158], the “IC50, kinase assay PKA” value was above 100000 nM.

Turning to RPR[Nva]YA[hLeu]-NH2 (not fully specified (N-terminus)) [PTR 6202], the “IC50, kinase assay PKA” value was above 10000 nM.

The target in the next test is protein kinase B (PKB). The test is described as follows: cell-based or functional assay. This is another data set of the same source.
With {Coumarin‑3‑oyl}-RPR[Nva]Y[Dap][hLeu]-NH2 [PTR 6392], the “IC50, in vitro kinase assay PKB” value is 5000 nM.

Take {HO‑CO‑(CH2)2‑CO}-[dK][dK][dK]RPR[Nva]Y[Dap][hLeu]-NH2 [PTR 6394]: the “IC50, in vitro kinase assay PKB” value stood at 10000 nM.

With B2, the “IC50, in vitro kinase assay PKB” value was 300 nM.

As for B3, the “IC50, in vitro kinase assay PKB” value stood at 2000 nM.

With {Vitamin E‑CO‑(CH2)2‑CO}-[dK][dK][dK]RPR[Nva]Y[Dap][hLeu]-NH2 [PTR 6396], the “IC50, in vitro kinase assay PKB” value was found to be 200 nM.

Turning to B4, the “IC50, in vitro kinase assay PKB” value stood at 500 nM.

As to B5, the “IC50, in vitro kinase assay PKB” value was found to be 300 nM.
